Results on 4 molecules are retold here after patent US20040086933A1 (Chugai, published 2004).

Test [1] has as its target temperature-sensitive p53 (pMSVp53Val135) (UniProt P02340). Nature of the test: cell-based or functional assay.
For another test, the target named is T1, GST (UniProt P08515 1-218 = GST).
T1 construct: also called glutathione S-transferase
Nature of the test: GST pull-down with glutathione-Sepharose, anti-His Western blot (FIG. 9, Lanes 4 to 6). The method, then:
Different striamins conjugated to histidines were reacted with p53 conjugated to GST in vitro, and the reaction was immunoprecipitated with glutathione Sepharose beads, followed by Western blot analysis using anti-histidine-tag and anti-p53 antibodies (“GST-p53 pull” in the figure).
Each protein purified in step (1) (2 to 5 μg) was mixed with GST or GST-p53 (1 μg, Santa Cruz) in NP40-lysis buffer (500 μl). After two hours, glutathione-Sepharose beads (20 μl) were added to the suspension and rotated for mixing for one hour at 4° C. The beads were precipitated by centrifugation, washed three times with TBS and then boiled in SDS-sample buffer. Subsequently, SDS-PAGE was carried out for each sample, followed by detection of the respective striamins conjugated to the histidines by Western blotting using an anti-histidine-tag antibody. In addition, p53 was detected by Western blotting using anti-p53 antibody.

T1 sequence (P08515 whole entry): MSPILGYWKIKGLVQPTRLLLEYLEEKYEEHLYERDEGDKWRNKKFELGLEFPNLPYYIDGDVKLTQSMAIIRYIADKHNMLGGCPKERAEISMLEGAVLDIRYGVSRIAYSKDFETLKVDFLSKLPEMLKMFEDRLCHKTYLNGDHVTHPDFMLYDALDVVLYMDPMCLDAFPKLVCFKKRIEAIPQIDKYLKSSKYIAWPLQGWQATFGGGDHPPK

Turning to striamin (full-length, untagged), in test [1], the p53 activity (p53-responsive luciferase reporter PG-13luc in p53-/- MEF cells) came out at 4.6 fold and the β-gal positive cells (p53-responsive β-gal reporter pRGC fos-lacZ in microinjected p53-/- MEF cells) came to 5%.

B1: N-striamin with a histidine tag (pQE30/N-striamin) (other)
chain: MKGLAGEWHQDSGLDIREKAEDFSLPWLLPRLMALVMQEEGRFRSDRNHGYLREWLRIQALTACLPSPLGRVHYA
notes: not shown: N-terminal His tag encoded by the pQE30 vector (Qiagen)
For B1, the binding result with GST is “no binding”.

B2: C-striamin with a histidine tag (pQE30/C-striamin) (other)
chain: QCSPKQKGRLPRGWASLPSLSVLVRALRASNAFSLGNYYCCPWRGTRWAKGQPGEWARPRASSPSAHREGVAVT
notes: as for B1
With B2, the binding result in the test with GST is “no binding”.

B3: full-length striamin with a histidine tag (pQE30/full-length striamin) (other)
chain: MKGLAGEWHQDSGLDIREKAEDFSLPWLLPRLMALVMQEEGRFRSDRNHGYLREWLRIQALTACLPSPLGRVHYAQCSPKQKGRLPRGWASLPSLSVLVRALRASNAFSLGNYYCCPWRGTRWAKGQPGEWARPRASSPSAHREGVAVT
notes: also called pQE30/striamin; His-tagged striamin; not shown: N-terminal His tag encoded by the pQE30 vector (Qiagen)
On to B3, for which the binding result with GST is recorded as “no binding”.
